Like-named read-outs stand apart in the source and are kept apart here.
B1: P4B-1F4 (antibody, human IgG1, kappa, V domains shown)
VH: QVQLVESGGGVVQPGRSLRLSCAASGFTFSSYGMHWVRQAPGKGLEWVAVISYDGSNKYYADSVKGRFTISRDNSKNTLYLQINSLRAEDTAVYYCAKGPRYSSSWYISLYYYYGMDVWGQGTTVTVSS
VL: not shown
B2: P2A-1A8 (antibody, V domains shown)
VH: EVQLVESGGDLVQPGRSLRLSCAASGFAFDDYAMHWVRQAPGKGLEWVSGSTWNSGTIAYADSVKGRFTISRDNAKKSLYLQMNSLRTEDTALYYCAKLGGYSDYDYPRPGDHYYGLDVWGQGTTVTVSS
VL: QSALTQPASVSGSPGQSITISCTGTSSDVGSYNLVSWYQQHPGKVPKLLIYDVNKRPSGISNRFSGSKSGNTASLTISGLQAEDEADYYCRSYTDSNTYVFGTGTKVTVLG
B3: P2B-1G5 (antibody, human IgG1, lambda, V domains shown)
VH: QVQLVQSGSELKKPGASVKVSCKASGYTFTTYVMNWVRQAPGQGLEWMGWINTNTGNPTYAQGFTGRFVFSLDTSVSTASLQISSLKAEDTAVYYCSCEITTLGGMDVWGQGTTVTVSS
VL: SYVLTQPPSVSVAPGKTARITCGGNNIGSKSVHWYQQKPGQAPVLVIYYDSDRPSGIPERFSGSNSGNTATLTISGVEAGDEADYYCQVWDSISDHRVFGGGTKLTVLG
B4: P2B-2F6 (antibody, V domains shown)
VH: QVQLQESGPGLVKPSETLSLTCTVSGYSISSGYYWGWIRQPPGKGLEWIGSIYHSGSTYYNPSLKTRVTISVDTSKNQFSLKLSSVTAADTAVYYCARAVVGIVVVPAAGRRAFDIWGQGTMVTVSS
VL: QSALTQPPSASGSPGQSVTISCTGTSSDVGGYNYVSWYQQHPGKAPKLMIYEVSKRPSGVPDRFSGSKSGNTASLTVSGLQAEDEADYYCSSYAGSNNLVFGGGTKLTVLG
B5: P2B-2F6 (antibody, V domains shown)
VH: B4 VH
VL: B4 VL
B6: P2B-2F6 (antibody, V domains shown)
VH: B4 VH
VL: B4 VL

Experiments:
[1] = molecular target: T1, full length spike (S) protein of SARS-CoV-2 (SARS-CoV-2, UniProt P0DTC2 14-1273); assay: cell-based or functional assay
[2] = molecular target: spike protein on live SARS-CoV-2 (SARS-CoV-2, UniProt P0DTC2 14-1273); assay: cell-based or functional assay
[3] = molecular target: T1, full length spike (S) protein of …; assay: cell-based or functional assay; remark: listed apart in the source
[4] = molecular target: recombinant RBD of the spike protein of SARS-CoV-2 (residues Arg319-Phe541) (SARS-CoV-2, UniProt P0DTC2 319-541)
[5] = molecular target: T1, full length spike (S) protein of …; assay: cell-based or functional assay; remark: listed apart in the source
[6] = molecular target: full length spike (S) protein of SARS-CoV-2 on pseudovirus (SARS-CoV-2, UniProt P0DTC2 14-1273); assay: cell-based or functional assay
[7] = molecular target: spike (S) protein of live SARS-CoV-2 (SARS-CoV-2, UniProt P0DTC2 14-1273); assay: cell-based or functional assay
[8] = molecular target: full length S protein of SARS-CoV-2 (on pseudovirus) (SARS-CoV-2, UniProt P0DTC2 14-1273); assay: cell-based or functional assay
[9] = molecular target: spike protein of live SARS-CoV-2 (SARS-CoV-2, UniProt P0DTC2 14-1273); assay: cell-based or functional assay

| Binder | IC50, live SARS-CoV-2 focus reduction neutralization test (FRNT) [2] | IC50, pseudovirus neutralization [3] | Neutralizing activity (%) Mean at 0.0228624 µg/ml [3] | Neutralizing activity (%) Mean at 0.0685871 µg/ml [3] | Neutralizing activity (%) Mean at 0.2057613 µg/ml [3] | Neutralizing activity (%) Mean at 0.6172839 µg/ml [3] | Neutralizing activity (%) Mean at 1.851852 µg/ml [3] | Neutralizing activity (%) Mean at 5.555555 µg/ml [3] | Neutralizing activity (%) Mean at 16.66667 µg/ml [3] | Neutralizing activity (%) Mean at 50 µg/ml [3] | further results |
| --- | --- | --- | --- | --- | --- | --- | --- | --- | --- | --- | --- |
| B1 |  |  |  |  |  |  |  |  |  |  | IC90, Pesudovirus neutralization [1]: 14.5 µg/mL |
| B2 | 35.9 µg/mL | 7.68 µg/mL | 4.34% | 13.2% | 14.1% | 16.5% | 26.7% | 44.8% | 67.8% | 88.2% |  |
| B3 |  |  |  |  |  |  |  |  |  |  | Kd [4]: 0.1 nM; kon [4]: 1.38e+06 M⁻¹ s⁻¹; IC50, pseudovirus neutralization [5]: 0.11 µg/mL |
| B4 | 0.41 µg/mL | 0.05 µg/mL | 39.4% | 51.8% | 67.1% | 81.4% | 89% | 93.5% | 95.4% | 97.4% |  |
| B5 |  |  |  |  |  |  |  |  |  |  | Pseudovirus IC50 [6]: 0.05 µg/mL; Pseudovirus IC80 [6]: 0.607 µg/mL; Live virus IC50 [7]: 0.407 µg/mL; Live virus IC80 [7]: 2.43 µg/mL |
| B6 |  |  |  |  |  |  |  |  |  |  | Pseudovirus IC50 [8]: 0.05 µg/mL; Pseudovirus IC80 [8]: 0.607 µg/mL; Live virus IC50 [9]: 0.407 µg/mL |

— patent US20210292392A1 (TSB THERAPEUTICS BEIJING, published 2021)
